Test system: CIZ1 N571ΔPLD2 (Mus musculus)
Assay: EMSA
Conditions: 10 mM Tris-HCl pH 7.5, 30 mM NaCl, 2.5 mM MgCl2, 0.2 mM DTT, 0.1% IGEPAL CA-630, 0.1 mg/ml yeast tRNA, 0.4 U RNaseOUT, 1% glycerol; 30 C 20 min; 0.7% agarose …

Substance | K half [nM]
Xist repeat A | 100
Xist repeat E proximal | 100

— article PMC8927971
